Experiments:
PPARα/RXR heterodimer = PPARα/RXR heterodimer (UniProt Q07869+P19793); experiment: EMSA; conditions: cooperativity ratio; 0.5 mM ZnCl2, 4 C
PPARγ/RXR heterodimer = PPARγ/RXR heterodimer (UniProt P37231+P19793); experiment: EMSA; conditions: 0.5 mM ZnCl2, 4 C
[1] = cooperativity ratio, dimer and tetramer complexes

PPARγ/RXR heterodimer, sequence (P37231 whole entry, chain 1 of 2): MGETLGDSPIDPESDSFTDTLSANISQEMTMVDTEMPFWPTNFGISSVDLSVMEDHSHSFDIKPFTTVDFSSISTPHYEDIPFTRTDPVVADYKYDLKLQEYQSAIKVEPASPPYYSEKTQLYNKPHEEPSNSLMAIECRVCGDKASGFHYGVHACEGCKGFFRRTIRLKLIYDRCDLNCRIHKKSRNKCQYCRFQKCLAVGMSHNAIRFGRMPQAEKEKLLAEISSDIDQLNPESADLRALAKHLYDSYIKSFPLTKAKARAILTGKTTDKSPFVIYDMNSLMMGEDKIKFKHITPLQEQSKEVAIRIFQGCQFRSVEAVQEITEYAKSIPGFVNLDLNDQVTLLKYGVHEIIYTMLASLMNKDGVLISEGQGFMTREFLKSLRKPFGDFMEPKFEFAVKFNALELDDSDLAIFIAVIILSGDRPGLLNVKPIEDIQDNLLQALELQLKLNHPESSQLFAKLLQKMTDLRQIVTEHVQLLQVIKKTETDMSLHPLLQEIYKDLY
PPARγ/RXR heterodimer, sequence (P19793 whole entry, chain 2 of 2): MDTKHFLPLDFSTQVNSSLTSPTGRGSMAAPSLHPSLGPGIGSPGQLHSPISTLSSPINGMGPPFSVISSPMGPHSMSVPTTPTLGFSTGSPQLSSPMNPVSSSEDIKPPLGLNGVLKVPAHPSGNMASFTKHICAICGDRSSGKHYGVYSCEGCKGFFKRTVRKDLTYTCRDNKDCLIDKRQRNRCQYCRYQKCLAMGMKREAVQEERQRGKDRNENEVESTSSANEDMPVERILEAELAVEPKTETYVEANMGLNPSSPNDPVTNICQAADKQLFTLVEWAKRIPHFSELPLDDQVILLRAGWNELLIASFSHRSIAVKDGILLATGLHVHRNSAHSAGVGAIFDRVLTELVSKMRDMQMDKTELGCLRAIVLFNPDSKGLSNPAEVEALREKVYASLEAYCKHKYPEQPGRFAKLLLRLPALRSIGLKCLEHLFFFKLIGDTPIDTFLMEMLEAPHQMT
PPARα/RXR heterodimer, sequence (Q07869 whole entry, chain 1 of 2): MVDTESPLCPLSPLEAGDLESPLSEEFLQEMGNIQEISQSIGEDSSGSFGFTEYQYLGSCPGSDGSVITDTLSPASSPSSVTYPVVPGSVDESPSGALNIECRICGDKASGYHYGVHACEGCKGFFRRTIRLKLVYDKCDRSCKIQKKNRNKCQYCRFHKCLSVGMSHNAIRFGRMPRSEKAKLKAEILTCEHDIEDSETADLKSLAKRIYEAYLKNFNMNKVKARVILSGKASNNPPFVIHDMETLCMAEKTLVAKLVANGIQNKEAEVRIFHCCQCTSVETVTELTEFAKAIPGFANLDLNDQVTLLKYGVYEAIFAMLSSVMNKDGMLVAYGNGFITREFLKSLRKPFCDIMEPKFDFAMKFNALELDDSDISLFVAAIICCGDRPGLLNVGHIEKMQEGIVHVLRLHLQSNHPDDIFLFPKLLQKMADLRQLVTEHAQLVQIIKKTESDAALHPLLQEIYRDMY
PPARα/RXR heterodimer, sequence (P19793 whole entry, chain 2 of 2): as the sequence (P19793 whole entry, chain 2 of 2) above

Row | Sequence | binding signal (PPARα/RXR heterodimer) [KdII/KdIV] | cooperativity ratio (KdII/KdIV) (PPARγ/RXR heterodimer; [1]) | cooperativity ratio (KdII/KdIV) (PPARγ/RXR heterodimer; cooperativity ratio 34 +/- 11, 80% tetrameric)
1 | CAAAACTAGGTCAAAGGTCATGTCTTTAGGCCCAAAACTAGGTCAAAGGTCA (double strand) [(DR1)2 31] | 11.6 | 12.6 | –
2 | CAAAACTAGGTCAAAGGTCAAAACTAGGTCAAAGGTCA (double strand) [(DR1)2 17] | 7 | 9 | –
3 | CAAAACTAGGTCAAAGGTCATCAAAACTAGGTCAAAGGTCA (double strand) [(DR1)2 21] | 11.2 | – | 34
